Laboratory results from FireProtDB (doi:10.1529/biophysj.104.051052).

Conditions: Canavalia ensiformis, pH 7, Fluorescence, HEPES 25 mM, CaCl2 15 mM, reversible: yes, whole UniProt chain shown; for denaturant m value: GdnHCl

B1: Concanavalin-A wild type, P02866 (protein)
chain: MAISKKSSLFLPIFTFITMFLMVVNKVSSSTHETNALHFMFNQFSKDQKDLILQGDATTGTDGNLELTRVSSNGSPQGSSVGRALFYAPVHIWESSAVVASFEATFTFLIKSPDSHPADGIAFFISNIDSSIPSGSTGRLLGLFPDANVIRNSTTIDFNAAYNADTIVAVELDTYPNTDIGDPSYPHIGIDIKSVRSKKTAKWNMQNGKVGTAHIIYNSVDKRLSAVVSYPNADSATVSYDVDLDNVLPEWVRVGLSASTGLYKETNTILSWSFTSKLKSNEIPDIATVV
denaturant m value (7 °C): 1.3 kcal/mol/M
denaturant m value (12 °C): 1.6 kcal/mol/M
denaturant m value (18 °C): 1.8 kcal/mol/M
denaturant m value (27 °C): 2.1 kcal/mol/M
denaturant m value (30 °C): 2.3 kcal/mol/M
denaturant m value (39 °C): 2.2 kcal/mol/M
Tm (Thermal): 98.5 °C
heat capacity change of unfolding (Thermal): 4.2 kcal/mol/K
unfolding enthalpy (van 't Hoff) (Thermal): 179 kcal/mol
